Laboratory results as given in patent US20030203373A1 (priority 2002, published 2003).

Assays:
[1] = target: T1, angiotensin-converting-enzyme derived from pig kidney (pig) (UniProt F1RRW5); assay: cell-based or functional assay
T1 sequence (looked up): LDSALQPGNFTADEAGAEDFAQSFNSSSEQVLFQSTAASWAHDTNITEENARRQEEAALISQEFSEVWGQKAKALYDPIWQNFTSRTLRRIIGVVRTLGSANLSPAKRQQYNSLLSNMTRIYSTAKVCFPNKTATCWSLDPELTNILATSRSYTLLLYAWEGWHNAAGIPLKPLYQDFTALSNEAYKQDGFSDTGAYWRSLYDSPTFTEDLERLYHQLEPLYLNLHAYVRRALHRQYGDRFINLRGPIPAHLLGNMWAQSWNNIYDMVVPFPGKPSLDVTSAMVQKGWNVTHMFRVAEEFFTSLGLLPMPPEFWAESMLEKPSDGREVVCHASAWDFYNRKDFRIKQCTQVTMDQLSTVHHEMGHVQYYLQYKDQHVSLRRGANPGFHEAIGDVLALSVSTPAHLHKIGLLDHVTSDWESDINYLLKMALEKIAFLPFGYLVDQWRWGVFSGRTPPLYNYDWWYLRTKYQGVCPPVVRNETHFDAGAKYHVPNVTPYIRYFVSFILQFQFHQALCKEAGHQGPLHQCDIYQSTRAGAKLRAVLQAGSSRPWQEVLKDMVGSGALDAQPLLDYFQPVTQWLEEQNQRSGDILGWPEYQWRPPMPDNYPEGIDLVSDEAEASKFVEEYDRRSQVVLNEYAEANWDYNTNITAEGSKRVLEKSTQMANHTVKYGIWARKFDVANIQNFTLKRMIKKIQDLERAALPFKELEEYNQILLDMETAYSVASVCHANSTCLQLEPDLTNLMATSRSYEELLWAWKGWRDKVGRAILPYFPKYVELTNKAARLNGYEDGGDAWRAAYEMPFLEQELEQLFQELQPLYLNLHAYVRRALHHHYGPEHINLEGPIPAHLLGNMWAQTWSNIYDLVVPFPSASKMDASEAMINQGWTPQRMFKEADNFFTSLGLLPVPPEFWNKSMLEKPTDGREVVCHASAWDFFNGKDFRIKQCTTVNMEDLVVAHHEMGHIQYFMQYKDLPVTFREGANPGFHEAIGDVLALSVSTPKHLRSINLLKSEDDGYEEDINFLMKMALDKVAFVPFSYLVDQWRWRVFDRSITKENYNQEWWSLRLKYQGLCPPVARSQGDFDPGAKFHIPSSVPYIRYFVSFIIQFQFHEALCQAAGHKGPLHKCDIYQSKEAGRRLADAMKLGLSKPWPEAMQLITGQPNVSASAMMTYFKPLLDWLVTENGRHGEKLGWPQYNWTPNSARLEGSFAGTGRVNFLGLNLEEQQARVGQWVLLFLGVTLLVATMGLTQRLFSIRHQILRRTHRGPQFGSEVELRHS

[2] = target: T2, angiotensin-converting enzyme (ACE) from pig kidney (EC 3.4.15.1 (Sigma)) (pig) (UniProt F1RRW5); assay: cell-based or functional assay
T2 sequence (looked up): T1 sequence (looked up)

In the case of QVLSEPNEEAGAALSPLPEVPP (N-terminal pyroglutamate) [S492], the IC50, ACE inhibition [1] is reported as greater than 300 µM.

For PLPEVPP [Peptid S548 (PLPEVPP)], the % inhibition of ACE, 0.39 µM inhibitor, row A [2] was 9.98%, the % inhibition of ACE, 0.39 µM inhibitor, row B [2] was 5.85% and the % inhibition of ACE, 0.39 µM inhibitor, row C [2] was 4.63%. It also gave a % inhibition of ACE, 0.39 µM inhibitor, row D [2] of -9.77%, a % inhibition of ACE, 0.78125 µM inhibitor, row A [2] of 12.8% and a % inhibition of ACE, 0.78125 µM inhibitor, row B [2] of 18.5%. The % inhibition of ACE, 0.78125 µM inhibitor, row C [2] was 6.03%, the % inhibition of ACE, 0.78125 µM inhibitor, row D [2] was 2.73% and the % inhibition of ACE, 1.5625 µM inhibitor, row A [2] was 14.3%. For the same binder, the % inhibition of ACE, 1.5625 µM inhibitor, row B [2] was 25.6%, the % inhibition of ACE, 1.5625 µM inhibitor, row C [2] was 11.2% and the % inhibition of ACE, 1.5625 µM inhibitor, row D [2] was 4.98%. The % inhibition of ACE, 3.125 µM inhibitor, row A [2] was 20.4%, the % inhibition of ACE, 3.125 µM inhibitor, row B [2] was 18.6% and the % inhibition of ACE, 3.125 µM inhibitor, row C [2] was 16.3%. It also gave a % inhibition of ACE, 3.125 µM inhibitor, row D [2] of 12.7%, a % inhibition of ACE, 6.25 µM inhibitor, row A [2] of 30.6% and a % inhibition of ACE, 6.25 µM inhibitor, row B [2] of 28.8%. The % inhibition of ACE, 6.25 µM inhibitor, row C [2] was 25.2%, the % inhibition of ACE, 6.25 µM inhibitor, row D [2] was 22.6% and the % inhibition of ACE, 12.5 µM inhibitor, row A [2] was 36.8%. For the same binder, the % inhibition of ACE, 12.5 µM inhibitor, row B [2] was 37.2%, the % inhibition of ACE, 12.5 µM inhibitor, row C [2] was 35.7% and the % inhibition of ACE, 12.5 µM inhibitor, row D [2] was 31.6%. The % inhibition of ACE, 25 µM inhibitor, row A [2] was 55.7%, the % inhibition of ACE, 25 µM inhibitor, row B [2] was 54.8% and the % inhibition of ACE, 25 µM inhibitor, row C [2] was 56.7%. The % inhibition of ACE, 25 µM inhibitor, row D [2] was 54.5%, the % inhibition of ACE, 50 µM inhibitor, row A [2] was 69.5% and the % inhibition of ACE, 50 µM inhibitor, row B [2] was 68.1%. It also gave a % inhibition of ACE, 50 µM inhibitor, row C [2] of 64.2%, a % inhibition of ACE, 50 µM inhibitor, row D [2] of 62.3% and a % inhibition of ACE, 100 µM inhibitor, row A [2] of 81.8%. For the same binder, the % inhibition of ACE, 100 µM inhibitor, row B [2] was 80.4%, the % inhibition of ACE, 100 µM inhibitor, row C [2] was 78.9% and the % inhibition of ACE, 100 µM inhibitor, row D [2] was 77.8%. It also gave a % inhibition of ACE, 200 µM inhibitor, row A [2] of 89.3%, a % inhibition of ACE, 200 µM inhibitor, row B [2] of 88.5% and a % inhibition of ACE, 200 µM inhibitor, row C [2] of 88.4%. For the same binder, the % inhibition of ACE, 200 µM inhibitor, row D [2] was 87.9%, the fluorescence (ACE activity), 0.39 µM inhibitor, row A [2] was 813000 and the fluorescence (ACE activity), 0.39 µM inhibitor, row B [2] was 850000. It also gave a fluorescence (ACE activity), 0.39 µM inhibitor, row C [2] of 861000, a fluorescence (ACE activity), 0.39 µM inhibitor, row D [2] of 990000 and a fluorescence (ACE activity), 0.78125 µM inhibitor, row A [2] of 788000. It also gave a fluorescence (ACE activity), 0.78125 µM inhibitor, row B [2] of 737000, a fluorescence (ACE activity), 0.78125 µM inhibitor, row C [2] of 848000 and a fluorescence (ACE activity), 0.78125 µM inhibitor, row D [2] of 878000. For the same binder, the fluorescence (ACE activity), 1.5625 µM inhibitor, row A [2] was 774000, the fluorescence (ACE activity), 1.5625 µM inhibitor, row B [2] was 673000 and the fluorescence (ACE activity), 1.5625 µM inhibitor, row C [2] was 803000. It also gave a fluorescence (ACE activity), 1.5625 µM inhibitor, row D [2] of 858000, a fluorescence (ACE activity), 3.125 µM inhibitor, row A [2] of 720000 and a fluorescence (ACE activity), 3.125 µM inhibitor, row B [2] of 736000. It also gave a fluorescence (ACE activity), 3.125 µM inhibitor, row C [2] of 756000, a fluorescence (ACE activity), 3.125 µM inhibitor, row D [2] of 789000 and a fluorescence (ACE activity), 6.25 µM inhibitor, row A [2] of 628000. The fluorescence (ACE activity), 6.25 µM inhibitor, row B [2] was 644000, the fluorescence (ACE activity), 6.25 µM inhibitor, row C [2] was 676000 and the fluorescence (ACE activity), 6.25 µM inhibitor, row D [2] was 699000. For the same binder, the fluorescence (ACE activity), 12.5 µM inhibitor, row A [2] was 573000, the fluorescence (ACE activity), 12.5 µM inhibitor, row B [2] was 668000 and the fluorescence (ACE activity), 12.5 µM inhibitor, row C [2] was 583000. For the same binder, the fluorescence (ACE activity), 12.5 µM inhibitor, row D [2] was 619000, the fluorescence (ACE activity), 25 µM inhibitor, row A [2] was 402000 and the fluorescence (ACE activity), 25 µM inhibitor, row B [2] was 411000. For the same binder, the fluorescence (ACE activity), 25 µM inhibitor, row C [2] was 394000, the fluorescence (ACE activity), 25 µM inhibitor, row D [2] was 413000 and the fluorescence (ACE activity), 50 µM inhibitor, row A [2] was 278000. For the same binder, the fluorescence (ACE activity), 50 µM inhibitor, row B [2] was 292000, the fluorescence (ACE activity), 50 µM inhibitor, row C [2] was 326000 and the fluorescence (ACE activity), 50 µM inhibitor, row D [2] was 343000. The fluorescence (ACE activity), 100 µM inhibitor, row A [2] was 168000, the fluorescence (ACE activity), 100 µM inhibitor, row B [2] was 181000 and the fluorescence (ACE activity), 100 µM inhibitor, row C [2] was 194000. It also gave a fluorescence (ACE activity), 100 µM inhibitor, row D [2] of 204000, a fluorescence (ACE activity), 200 µM inhibitor, row A [2] of 101000 and a fluorescence (ACE activity), 200 µM inhibitor, row B [2] of 108000. For the same binder, the fluorescence (ACE activity), 200 µM inhibitor, row C [2] was 109000 and the fluorescence (ACE activity), 200 µM inhibitor, row D [2] was 114000.
